These are literature values, as cited in patent publication US20180221339A1, “COMPOSITIONS AND METHODS FOR TREATING AND DIAGNOSING OCULAR DISORDERS” (TRANSLATUM MEDICUS, INC., priority 2015, published 2018).

The target of this data set is T1, complement factor D (CFD) (Homo sapiens, UniProt P00746).
T1 construct: host or cells: patients (endogenous protein, in vivo)
The note with it: phase II study, 18 month period; most robust in patients with complement factor H and I polymorphisms.

T1 sequence (P00746 26-253): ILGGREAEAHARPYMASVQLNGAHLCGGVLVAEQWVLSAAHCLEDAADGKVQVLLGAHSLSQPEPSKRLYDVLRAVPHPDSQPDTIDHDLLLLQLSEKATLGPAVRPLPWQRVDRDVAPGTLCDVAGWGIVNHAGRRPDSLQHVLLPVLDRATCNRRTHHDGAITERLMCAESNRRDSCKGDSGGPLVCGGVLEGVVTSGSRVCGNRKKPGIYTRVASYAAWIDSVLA

Turning to “Lampilizumab: complement factor D (CFD) inhibitor; anti-factor D antibody (Genentech)”, the “growth (expansion) of geographic atrophy” value was “can slow the growth, i.e. expansion, of geographic atrophy”.
